Molecular target: T1, canine IL-4 receptor alpha (IL-4Rα) on DH82 cells (canine)
T1 construct: Endogenous receptor of the DH82 cells in the STAT-6 assay; also called canine IL-4Rα; IL-4R alpha
T1 chain: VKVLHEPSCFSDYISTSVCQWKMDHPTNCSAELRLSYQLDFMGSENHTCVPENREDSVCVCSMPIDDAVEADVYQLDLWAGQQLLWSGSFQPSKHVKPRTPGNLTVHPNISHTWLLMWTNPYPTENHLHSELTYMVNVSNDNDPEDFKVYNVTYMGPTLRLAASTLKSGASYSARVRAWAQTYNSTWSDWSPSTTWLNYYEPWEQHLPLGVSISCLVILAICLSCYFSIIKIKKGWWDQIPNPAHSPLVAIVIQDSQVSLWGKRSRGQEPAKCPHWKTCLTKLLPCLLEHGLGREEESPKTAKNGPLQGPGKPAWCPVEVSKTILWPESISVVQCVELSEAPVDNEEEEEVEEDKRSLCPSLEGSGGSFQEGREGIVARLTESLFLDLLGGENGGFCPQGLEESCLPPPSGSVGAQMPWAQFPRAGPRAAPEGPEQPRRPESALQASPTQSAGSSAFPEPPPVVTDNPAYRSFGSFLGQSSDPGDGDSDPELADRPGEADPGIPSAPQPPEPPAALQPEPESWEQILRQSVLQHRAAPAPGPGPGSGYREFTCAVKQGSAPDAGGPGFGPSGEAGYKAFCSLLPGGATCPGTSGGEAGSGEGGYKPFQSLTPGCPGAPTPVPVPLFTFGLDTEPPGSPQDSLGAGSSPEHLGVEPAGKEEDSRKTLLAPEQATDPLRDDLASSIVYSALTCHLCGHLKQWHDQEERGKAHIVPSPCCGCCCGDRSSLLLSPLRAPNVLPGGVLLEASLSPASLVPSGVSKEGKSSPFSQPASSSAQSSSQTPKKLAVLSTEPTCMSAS
Assay: told from inhibition of IL-4- and IL-13-mediated STAT-6 phosphorylation in DH82 cells (AlphaLISA)

B1: c152H11-H3L3 (c152H11VL3-cCLk-s/c152H11VH3-cIgG-Bm) (antibody, V domains shown)
VH: EVQLVESGGDLVKPGGSLRLSCAASGFTFSSYGMSWVRQAPDKRLQWVATISRGGDYTYYPDSVKGRFTISRDNAKNTLYLQMNSLRAEDTAMYYCARGTLNNRGFASWGQGTLVTVSS
VL: EIVMTQSPASLSLSQEEKVTITCKASQNVGTNVAWYQQKPGQAPKLLIYSASYRYSGLPDRFSGSGSGTDFSFTISSLEPEDVAEFFCQQYNSYPYTFGQGTKLEIKR
notes: Caninized anti-canine IL-4R alpha antibody: VH3 heavy chain on modified canine IgG-B (IgG-Bm), kappa light chain L3
B1: binds.

Source: US20230044037A1 (INTERVET, published 2023)
